T1: human CXCR5 (human, UniProt P32302 1-372)
T1 sequence: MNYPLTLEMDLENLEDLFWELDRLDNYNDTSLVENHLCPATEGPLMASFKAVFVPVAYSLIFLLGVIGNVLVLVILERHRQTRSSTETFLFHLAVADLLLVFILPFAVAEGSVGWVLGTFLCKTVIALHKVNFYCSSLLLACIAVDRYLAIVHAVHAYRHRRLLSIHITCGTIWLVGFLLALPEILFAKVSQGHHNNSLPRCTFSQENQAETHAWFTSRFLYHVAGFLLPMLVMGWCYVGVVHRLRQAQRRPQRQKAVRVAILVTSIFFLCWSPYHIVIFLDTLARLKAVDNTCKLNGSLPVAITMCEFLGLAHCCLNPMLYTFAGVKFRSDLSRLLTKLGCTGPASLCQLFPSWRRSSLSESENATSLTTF

T2: cynomolgus monkey (Macaca fascicularis) CXCR5 (cynomolgus monkey (Macaca fascicularis), UniProt P32302 1-372 (human entry))
T2 chain: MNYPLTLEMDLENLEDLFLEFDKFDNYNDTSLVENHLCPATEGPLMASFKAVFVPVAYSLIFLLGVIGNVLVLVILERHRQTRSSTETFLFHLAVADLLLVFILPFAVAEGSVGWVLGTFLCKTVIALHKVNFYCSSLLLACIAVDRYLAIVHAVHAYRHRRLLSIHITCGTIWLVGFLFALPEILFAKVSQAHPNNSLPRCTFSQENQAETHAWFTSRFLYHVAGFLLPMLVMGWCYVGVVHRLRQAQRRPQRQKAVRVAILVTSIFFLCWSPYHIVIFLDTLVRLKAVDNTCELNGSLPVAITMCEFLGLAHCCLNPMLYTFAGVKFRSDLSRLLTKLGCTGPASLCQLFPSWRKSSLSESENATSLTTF

T3: human CXCR2 (human, UniProt P25025 1-360)
T3 construct: whole, on cells; Native on the granulocyte population of human whole blood
T3 sequence (looked up): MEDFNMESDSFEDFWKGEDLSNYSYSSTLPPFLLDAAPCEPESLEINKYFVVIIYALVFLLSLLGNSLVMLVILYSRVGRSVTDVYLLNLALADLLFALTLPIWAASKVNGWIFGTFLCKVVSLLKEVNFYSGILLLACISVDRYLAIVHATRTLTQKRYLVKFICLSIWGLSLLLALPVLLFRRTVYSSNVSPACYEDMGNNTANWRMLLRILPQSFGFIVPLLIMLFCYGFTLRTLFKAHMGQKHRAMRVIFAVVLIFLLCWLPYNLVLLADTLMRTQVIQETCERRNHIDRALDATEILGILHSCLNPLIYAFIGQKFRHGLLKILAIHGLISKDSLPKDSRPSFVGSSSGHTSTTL


Columns and labels:
human CXCR5 [1] = target: T1, human CXCR5; experiment: cell-based or functional assay
human CXCR5 [2] = target: T1, human CXCR5; experiment: KinExA, IgG2 mAb equilibrated with HEK-293 cells expressing human CXCR5, n-curve analysis
Description: Kinetic Exclusion Assay (KinExA) was used to determine the concentration of the free antibody that remains in solution after equilibrium has been established between the fully human IgG2 (subtype HC2h, as described in WO2009010290) anti-CXCR5 40C01 antibody variants and human CXCR5 expressed on the cell surface of stably transfected HEK-293 cells, from which the equilibrium dissociation constant (Kd) was determined. This method provides a true measure of the affinity/avidity of the antibody to integral membrane proteins like GPCRs.
HEK-293 cells, stably expressing human CXCR5, an integral membrane protein with 7 trans membrane domains, were harvested using Accutase cell detachment solution, resuspended at 2×10⁶ cells/ml and serially diluted 1 in 2 in 15 falcon tubes using KinExA buffer (PBS containing 1 mg/ml BSA and 0.02% NaN₃). An appropriate constant concentration of purified mAb was made in KinExA buffer and an equal volume of the mAb was mixed with the serially diluted cells. […] The cells were then centrifuged and the free mAb present in the supernatant was measured by KinExA using PMMA beads (Sapidyne Instruments, cat#440198) coated with goat anti-human IgG (H+L) (Jackson ImmunoResearch, cat#109-005-003) and DyLight 649-conjugated anti-human secondary antibody (Jackson ImmunoResearch, Goat anti-human Fc, cat#109-495-098) used at 1 μg/ml in KinExA buffer. […]

human CXCR5 [3] = target: T1, human CXCR5; experiment: cell-based or functional assay; remark: listed apart in the source
[4] = target: T2, cynomolgus monkey (Macaca fascicularis) …; experiment: cell-based or functional assay
human CXCR5 [5] = target: T1, human CXCR5; experiment: cell-based or functional assay; remark: listed apart in the source
human CXCR2 = target: T3, human CXCR2; experiment: flow cytometry, Alexa-Fluor 647 labelled mAb in human whole blood
Description: (§1) 40C01-VH1-Vk3 and VH2-Vk3 variants were labelled with Alexa Fluor 647 dye using monoclonal antibody labelling kit from Invitrogen (Cat #A20186). Blood was collected in sodium-heparinised tubes and rested for 2 h at RT. Sodium azide (NaN₃) was then added to whole blood to a final concentration of 0.01%. Serial 1 in 3 dilutions of Alexa-Fluor 647 labelled-mAbs ranging from 60 μg/ml to 3 ng/ml were added to blood samples and incubated for 30 min at RT. Phycoerythrin (PE) labelled anti-CD19 (BD Pharmingen, cat#555413) and anti-human CXCR2 (R&D Systems, cat #FAB331P) mAbs and their respective isotype controls were used for gating B cells and monitoring CXCR2 expression on granulocytes, respectively. Labelled red blood cells were then lysed using the human erythrocyte lysing kit from R&D Systems (Cat # WL1000) and the blood cells resuspended in FACS buffer (PBS-1% BSA, 0.1% NaN₃) and analysed by flow cytometry on FACS Calibur 3 (BD Biosciences). The EC₅₀ and ECB, values were calculated by plotting the FL4 fluorescence (emission of Alexa Fluor 647 dye) as a function of the antibody concentration. […] No binding of the two 40C01 variants was detected on the granulocyte population which expresses CXCR2 (neutrophils).

human CXCR5 [6] = target: T1, human CXCR5; experiment: flow cytometry, Alexa Fluor 647 labelled mAb on HEK-293 cells stably transfected with human CXCR5; 40C01-VH1-Vk3, Alexa Fluor 647 labelled, HEK-293 cells with human CXCR5
Description: (§2) Anti-CXCR5 40C01-VH1-Vk3 and VH2-Vk3 variants were labelled with Alexa Fluor 647 dye using monoclonal antibody labelling kit from Invitrogen (Cat #A20186). Binding of labelled mAbs to HEK-293 cells stably transfected with human CXCR5 was examined by a direct immunofluorescence assay. A total of 1×10⁵ stable HEK-293 cells over-expressing human CXCR5 were incubated with 1 in 3 serially diluted Alexa Fluor 647 mAbs ranging from 60 μg/ml to 0.33 ng/ml in FACS buffer (PBS containing 1% BSA and 0.1% NaN₃) for 1 h on ice. Cells were washed twice with FACS buffer and analyzed on FACSCalbur flow cytometer (BD Biosciences).

human CXCR5 [7] = target: T1, human CXCR5; experiment: flow cytometry, Alexa Fluor 647 labelled mAb on CD19-gated human B cells in whole blood
Description: as §1

human CXCR5 [8] = target: T1, human CXCR5; experiment: flow cytometry, Alexa Fluor 647 labelled mAb on HEK-293 cells stably transfected with human CXCR5; 40C01-VH2-Vk3, Alexa Fluor 647 labelled, HEK-293 cells with human CXCR5
Description: as §2

Binder | efficacy of inhibition of CXCL13-stimulated L1.2-CXCR5 chemotaxis (human CXCR5 [1]) | Kd (human CXCR5 [2]) | IC50, inhibition of CXCL13-induced L1.2-CXCR5 chemotaxis (human CXCR5 [3]) | IC50, inhibition of ERK phosphorylation in whole blood (B cells, CXCL13-stimulated) [4] | IC50, inhibition of ERK phosphorylation in whole blood (B cells, CXCL13-stimulated) (human CXCR5 [5]) | binding result (human CXCR2) | EC50 (human CXCR5 [6]) | EC50 (human CXCR5 [7]) | EC50 (human CXCR5 [8])
anti-CXCR5 40C01-VH2-Vk3 as IgG2 (antibody, also called VH2-Vk3 (isotype 2)) heavy: EVQLLESGGGLVQPGGSLRLSCAASGFTFSRSVMVWVRQAPGKGLEWVSGISPSGGVTRYAASVKGRFTISRDNSKNTLYLQMNSLRAEDTAVYYCARIRKEKTTISYFFDYWGQGTLVTVSSASTKGPSVFPLAPCSRSTSESTAALGCLVKDYFPEPVTVSWNSGALTSGVHTFPAVLQSSGLYSLSSVVTVPSSNFGTQTYTCNVDHKPSNTKVDKTVEPKSSDKTHTCPPCPAPPVAGPSVFLFPPKPKDTLMISRTPEVTCVVVDVSHEDPEVQFNWYVDGVEVHNAKTKPREEQAQSTFRVVSVLTVVHQDWLNGKEYKCKVSNKGLPAPIEKTISKTKGQPREPQVYTLPPSREEMTKNQVSLTCLVKGFYPSDIAVEWESNGQPENNYKTTPPMLDSDGSFFLYSKLTVDKSRWQQGNVFSCSVMHEALHNHYTQKSLSLSPG light: DIQMTQSPSSLSASVGDRVTITCRASQGVDAYVAWYQQKPGKVPKLLIYSTSTLASGVPSRFSGSGSGTDFTLTISSLQPEDVATYYCQSHNAAVVTFGQGTRLEIKRTVAAPSVFIFPPSDEQLKSGTASVVCLLNNFYPREAKVQWKVDNALQSGNSQESVTEQDSKDSTYSLSSTLTLSKADYEKHKVYACEVTHQGLSSPVTKSFNRGEC | 100% | 0.047 nM | 0.108 nM | 1.57 nM | 0.88 nM | – | – | – | –
anti-CXCR5 40C01-VH1-Vk3 variant (isotype not stated in the example) (antibody, V domains shown, also called Alexa-Fluor 647 labelled 40C01-VH1-Vk3) VH: EVQLLESGGGLVQPGGSLRLSCAASGFTFSRYVMVWVRQAPGKGLEWVSGISPSGGVTRYAASVKGRFTISRDNSKNTLYLQMNSLRAEDTAVYYCARIRKEMTTISYFFDYWGQGTLVTVSS VL: DIQMTQSPSSLSASVGDRVTITCRASQGVDAYVAWYQQKPGKVPKLLIYSTSTLASGVPSRFSGSGSGTDFTLTISSLQPEDVATYYCQSHNAAVVTFGQGTRLEIK | – | – | – | – | – | no binding (tested: 60 µg/ml to 3 ng/ml tested) | 2.26 nM | 1.92 nM | –
anti-CXCR5 40C01-VH2-Vk3 variant (isotype not stated in the example) (antibody, V domains shown, also called Alexa-Fluor 647 labelled 40C01-VH2-Vk3) VH: EVQLLESGGGLVQPGGSLRLSCAASGFTFSRSVMVWVRQAPGKGLEWVSGISPSGGVTRYAASVKGRFTISRDNSKNTLYLQMNSLRAEDTAVYYCARIRKEKTTISYFFDYWGQGTLVTVSS VL: DIQMTQSPSSLSASVGDRVTITCRASQGVDAYVAWYQQKPGKVPKLLIYSTSTLASGVPSRFSGSGSGTDFTLTISSLQPEDVATYYCQSHNAAVVTFGQGTRLEIK | – | – | – | – | – | no binding (tested: 60 µg/ml to 3 ng/ml tested) | – | 7.22 nM | 4.6 nM

From patent publication US20160115235A1 (ARES TRADING S A, published 2016)
